Assay results as given in publication PMC7961048, “Hierarchized phosphotarget binding by the seven human 14-3-3 isoforms” (Nature Communications, 2021).
One block for each binder: values may come before it. No end group written: not given here.

Key:
Experiment in all cases: fluorescence polarisation
Conditions in all cases: both partners purified
[1] = molecular target: T1, full-length human 14-3-3ζ fused to the C terminus of MBP (human, UniProt P63104 1-245)
T1 construct: not shown: MBP (crystallisable mutant), N-terminal, kept
T1 sequence (looked up): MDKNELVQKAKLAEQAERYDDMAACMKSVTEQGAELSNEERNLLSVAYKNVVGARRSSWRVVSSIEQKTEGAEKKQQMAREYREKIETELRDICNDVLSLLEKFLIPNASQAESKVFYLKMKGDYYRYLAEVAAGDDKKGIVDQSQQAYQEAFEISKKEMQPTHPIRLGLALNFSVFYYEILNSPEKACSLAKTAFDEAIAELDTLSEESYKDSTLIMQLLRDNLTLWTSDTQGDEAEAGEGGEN

[2] = molecular target: T2, full-length human 14-3-3ε fused to the C terminus of MBP (human, UniProt P62258 1-255)
T2 construct: not shown: MBP (crystallisable mutant), N-terminal, kept
T2 sequence (looked up): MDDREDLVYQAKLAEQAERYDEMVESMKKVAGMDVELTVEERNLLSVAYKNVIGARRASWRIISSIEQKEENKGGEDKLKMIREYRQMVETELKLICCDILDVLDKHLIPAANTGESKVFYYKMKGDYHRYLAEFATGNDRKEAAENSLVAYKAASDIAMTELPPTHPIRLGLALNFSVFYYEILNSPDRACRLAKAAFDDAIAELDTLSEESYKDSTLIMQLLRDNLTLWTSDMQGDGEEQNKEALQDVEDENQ

[3] = molecular target: T3, full-length human 14-3-3β fused to the C terminus of MBP (human, UniProt P31946 1-246)
T3 construct: not shown: MBP (crystallisable mutant), N-terminal, kept
T3 sequence (looked up): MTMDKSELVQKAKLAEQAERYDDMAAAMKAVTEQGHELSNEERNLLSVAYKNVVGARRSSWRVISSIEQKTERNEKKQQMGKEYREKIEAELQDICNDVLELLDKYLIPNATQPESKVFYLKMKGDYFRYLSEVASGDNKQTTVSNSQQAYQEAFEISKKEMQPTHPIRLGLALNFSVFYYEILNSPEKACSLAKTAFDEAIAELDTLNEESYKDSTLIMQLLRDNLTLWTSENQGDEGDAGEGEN

[4] = molecular target: T4, full-length human 14-3-3η fused to the C terminus of MBP (human, UniProt Q04917 1-246)
T4 construct: not shown: MBP (crystallisable mutant), N-terminal, kept
T4 sequence (looked up): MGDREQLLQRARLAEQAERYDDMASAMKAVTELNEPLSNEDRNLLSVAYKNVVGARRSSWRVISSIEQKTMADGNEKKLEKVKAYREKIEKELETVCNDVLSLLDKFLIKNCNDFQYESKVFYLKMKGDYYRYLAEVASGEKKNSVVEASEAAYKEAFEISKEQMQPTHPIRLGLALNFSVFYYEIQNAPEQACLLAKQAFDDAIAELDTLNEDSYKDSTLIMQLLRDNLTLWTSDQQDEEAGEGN

[5] = molecular target: T5, full-length human 14-3-3σ fused to the C terminus of MBP (human, UniProt P31947 1-248)
T5 construct: not shown: MBP (crystallisable mutant), N-terminal, kept
T5 sequence (looked up): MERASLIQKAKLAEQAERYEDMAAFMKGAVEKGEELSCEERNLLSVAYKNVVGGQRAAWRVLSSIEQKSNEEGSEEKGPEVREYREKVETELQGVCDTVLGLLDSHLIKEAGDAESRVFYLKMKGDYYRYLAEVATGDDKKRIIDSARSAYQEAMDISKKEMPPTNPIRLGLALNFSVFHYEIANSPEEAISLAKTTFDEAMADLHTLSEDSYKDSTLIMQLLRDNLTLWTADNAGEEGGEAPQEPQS

[6] = molecular target: T6, full-length human 14-3-3τ fused to the C terminus of MBP (human, UniProt P27348 1-245)
T6 construct: not shown: MBP (crystallisable mutant), N-terminal, kept
T6 sequence (looked up): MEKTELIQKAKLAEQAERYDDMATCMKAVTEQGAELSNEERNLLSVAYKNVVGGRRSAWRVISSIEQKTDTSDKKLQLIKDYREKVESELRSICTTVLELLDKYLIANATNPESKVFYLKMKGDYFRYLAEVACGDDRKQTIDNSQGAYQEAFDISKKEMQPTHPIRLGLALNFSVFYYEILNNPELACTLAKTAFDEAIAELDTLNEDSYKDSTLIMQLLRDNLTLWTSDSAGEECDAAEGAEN

[7] = molecular target: T7, full-length human 14-3-3γ fused to the C terminus of MBP (human, UniProt P61981 1-247)
T7 construct: not shown: MBP (crystallisable mutant), N-terminal, kept
T7 sequence (looked up): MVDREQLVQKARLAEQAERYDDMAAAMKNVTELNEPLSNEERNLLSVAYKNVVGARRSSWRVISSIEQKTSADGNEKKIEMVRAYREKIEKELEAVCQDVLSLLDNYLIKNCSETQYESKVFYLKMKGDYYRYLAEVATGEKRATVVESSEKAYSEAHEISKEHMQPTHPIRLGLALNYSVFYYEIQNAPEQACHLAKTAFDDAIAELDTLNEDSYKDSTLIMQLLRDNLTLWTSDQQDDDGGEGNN

binding result [1]: binds
binding result [2]: binds
binding result [3]: binds
binding result [4]: binds
binding result [5]: binds
binding result [6]: binds
binding result [7]: binds
B1: RSK1 phospho-PBM peptide RSK1_-2P (peptide)
peptide: RRVRKLPSTTL
modifications: not fully specified (residue 9)
notes: source: synthetic peptide (in-house, Fmoc)

binding result [1]: binds
binding result [2]: binds
binding result [3]: binds
binding result [4]: binds
binding result [5]: binds
binding result [6]: binds
binding result [7]: binds
B2: RSK1 phospho-PBM peptide RSK1_-1P (peptide)
peptide: RRVRKLPSTTL
modifications: not fully specified (residue 10)
notes: as for B1

binding result [1]: binds
binding result [2]: binds
binding result [3]: binds
binding result [4]: binds
binding result [5]: binds
binding result [6]: binds
binding result [7]: binds
B3: fluorescently labeled HSPB6 phosphopeptide (fpB6) (peptide)
peptide: WLRRASAPLPGLK
modifications: also: phosphorylation, site not given here, fluorescent label, unspecified
notes: also called FITC-labeled HSPB6 phosphopeptide; tracer; source: synthetic peptide, amino-terminal FITC labeling
